Data on one substance can be found in PMC5316852.

This experiment addresses NavMs prokaryotic sodium channel, wild type, full-length construct (Magnetococcus marinus (Magnetococcus sp. strain MC-1)) (UniProt A0L5S6). Kind of experiment: crystal structure; sitting drop, 0.05 M NaCl, 0.1 M MES pH 6.5, 37.8% v/v PEG 400, 4% ethylene glycol; protein purified in HEGA-10; molecular replacement with NavAb (PDB 3RVY).

As a reminder, the stoichiometry N is a count of units in the complex or per binding partner. The substance “NavMs prokaryotic sodium channel, wild type, full-length construct (from UniProt A0L5S6 1-274) (natural protein)” had a stoichiometry N of 4.
